Values quoted from earlier work in patent US20170080049A1, “MEDICINE AGAINST GROWTH FAILURE INDUCED BY ADMINISTRATION OF STEROID” (DAIICHI SANKYO COMPANY, LIMITED, priority 2014, published 2017).
Positions of bridges follow the written chain, without caps; N, C: chain ends. No end group written: not given here.

Legend:
NPR-B = molecular target: T1, NPR-B (Homo sapiens, UniProt P20594); details: Furuya et al. 1992; US 2010-305031; cited from earlier work
T1 sequence (P20594 23-1047): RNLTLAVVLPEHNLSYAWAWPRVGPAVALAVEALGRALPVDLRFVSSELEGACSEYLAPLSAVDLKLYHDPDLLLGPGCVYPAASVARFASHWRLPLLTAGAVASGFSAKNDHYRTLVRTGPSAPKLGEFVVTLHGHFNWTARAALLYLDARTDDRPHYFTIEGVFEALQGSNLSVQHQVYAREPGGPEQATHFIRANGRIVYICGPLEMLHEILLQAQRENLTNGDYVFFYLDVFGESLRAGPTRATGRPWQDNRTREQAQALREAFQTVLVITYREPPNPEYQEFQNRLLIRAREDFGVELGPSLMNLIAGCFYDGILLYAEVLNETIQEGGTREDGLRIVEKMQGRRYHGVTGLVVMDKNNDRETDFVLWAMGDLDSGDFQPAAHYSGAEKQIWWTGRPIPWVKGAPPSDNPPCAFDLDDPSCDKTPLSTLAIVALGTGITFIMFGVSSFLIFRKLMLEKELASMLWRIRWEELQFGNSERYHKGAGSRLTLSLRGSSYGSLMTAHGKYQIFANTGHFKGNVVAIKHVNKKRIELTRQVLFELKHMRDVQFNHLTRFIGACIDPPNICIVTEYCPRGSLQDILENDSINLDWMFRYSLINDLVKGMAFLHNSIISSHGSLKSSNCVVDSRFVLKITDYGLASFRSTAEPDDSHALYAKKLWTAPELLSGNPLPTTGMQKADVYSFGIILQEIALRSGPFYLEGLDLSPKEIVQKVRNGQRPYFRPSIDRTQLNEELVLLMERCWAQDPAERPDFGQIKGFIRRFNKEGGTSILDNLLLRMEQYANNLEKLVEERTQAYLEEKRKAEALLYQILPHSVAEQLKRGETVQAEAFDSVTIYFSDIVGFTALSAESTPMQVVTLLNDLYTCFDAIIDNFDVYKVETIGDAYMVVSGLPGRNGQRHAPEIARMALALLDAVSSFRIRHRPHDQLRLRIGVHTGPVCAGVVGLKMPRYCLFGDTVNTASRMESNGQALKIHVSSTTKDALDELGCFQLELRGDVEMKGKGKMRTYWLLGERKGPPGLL

normal mice = details: continuous intravenous administration, normal mice (Non Patent Literature 9, 10); cited from earlier work

Row | Substance | NPR-B agonist activity compared with hCNP-22 (in words) (NPR-B) | elongation of bone (in words) (normal mice)
1 | CNP6-22: peptide consisting of only the ring structure (amino acid Nos. 6 to 22 of SEQ ID NO: 1) (CFGLKLDRIGSMSGLGC; disulfide 1-17 (inferred)) | almost the same NPR-B agonist activity as that of hCNP-22 | 
2 | CNP-22: human-derived CNP-22 consisting of 22 amino acids, GLSKGCFGLK LDRIGSMSGL GC (GLSKGCFGLKLDRIGSMSGLGC) |  | promoted
